Biological target: T1, BCMA on BCMA-positive tumor cell lines (H929, RPMI-8226) (UniProt Q02223 1-184, limits assumed)
T1 sequence (looked up): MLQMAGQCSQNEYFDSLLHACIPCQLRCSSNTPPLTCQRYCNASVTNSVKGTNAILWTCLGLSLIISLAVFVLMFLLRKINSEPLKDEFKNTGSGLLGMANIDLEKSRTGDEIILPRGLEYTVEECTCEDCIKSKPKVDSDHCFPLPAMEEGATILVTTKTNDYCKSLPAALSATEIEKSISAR
Test: cell-based or functional assay

B1: BCMA-CAR fusion polypeptide (receptor)
chain: QVQLVQSGAEVKKPGASVKVSCKASGYSFPDYYINWVRQAPGQGLEWMGWIYFASGNSEYNQKFTGRVTMTRDTSSSTAYMELSSLRSEDTAVYFCASLYDYDWYFDVWGQGTMVTVSSGGGGSGGGGSGGGGSDIVMTQTPLSLSVTPGEPASISCKSSQSLVHSNGNTYLHWYLQKPGQSPQLLIYKVSNRFSGVPDRFSGSGSGADFTLKISRVEAEDVGVYYCAETSHVPWTFGQGTKLEIKTTTPAPRPPTPAPTIASQPLSLRPEACRPAAGGAVHTRGLDFACDIYIWAPLAGTCGVLLLSLVITLYCRSKRSRLLHSDYMNMTPRRPGPTRKHYQPYAPPRDFAAYRSRVKFSRSADAPAYQQGQNQLYNELNLGRREEYDVLDKRRGRDPEMGGKPRRKNPQEGLYNELQKDKMAEAYSEIGMKGERRRGKGHDGLYQGLSTATKDTYDALHMQALPPR
- % killing at a 0.625 ratio of effector T cells to tumor cells (one donor): > 50%

— patent US20250312376A1 (FLAGSHIP PIONEERING INNOVATIONS VI, published 2025)
